Among the data in publication PMC10029155 (2023) are Kd values, retold here.

Where no end group is shown, it is not given here.

The term Kd denotes the concentration at which binding is half-saturated. A higher Kd goes with lower affinity.

This assay has as its target cathepsin B (Homo sapiens, UniProt P07858). In words: square wave voltammetry.

In turn, SSTTNSNSTSNTK-biotin [CTSB BP3, listing 1 of 2 here] returned a Kd of 50.8 nM. With SSTTNSNSTSNTK-biotin [CTSB BP3, listing 2 of 2 here], the Kd worked out at 11.6 nM. WDMWPSMDWKAE (also: displayed on M13 phage pIII) [CTSB 4-1 phage-displayed peptide] registered a Kd of 73.7 nM.
